B1: Δ82-88: AnxA2 deletion of aa 82-88 (protein)
chain: MSTVHEILCKLSLEGDHSTPPSAYGSVKAYTNFDAERDALNIETAIKTKGVDEVTIVNILTNRSNAQRQDIAFAYQRRTKKSALSGHLETVILGLLKTPAQYDASELKASMKGLGTDEDSLIEIICSRTNQELQEINRVYKEMYKTDLEKDIISDTSGDFRKLMVALAKGRRAEDGSVIDYELIDQDARDLYDAGVKRKGTDVPKWISIMTERSVPHLQKVFDRYKSYSPYDMLESIRKEVKGDLENAFLNLVQCIQNKPLYFADRLYDSMKGKGTRDKVLIRIMVSRSEVDMLKIRSEFKRKYGKSLYYYIQQDTKGDYQKALLYLCGGDDYPYDVPDYA
B2: ΔR2: AnxA2 deletion of aa 109-192 (protein)
chain: MSTVHEILCKLSLEGDHSTPPSAYGSVKAYTNFDAERDALNIETAIKTKGVDEVTIVNILTNRSNAQRQDIAFAYQRRTKKELASALKSALSGHLETVILGLLKTPAQQDARDLYDAGVKRKGTDVPKWISIMTERSVPHLQKVFDRYKSYSPYDMLESIRKEVKGDLENAFLNLVQCIQNKPLYFADRLYDSMKGKGTRDKVLIRIMVSRSEVDMLKIRSEFKRKYGKSLYYYIQQDTKGDYQKALLYLCGGDDYPYDVPDYA
B3: ΔR3: AnxA2 deletion of aa 193-268 (protein)
chain: MSTVHEILCKLSLEGDHSTPPSAYGSVKAYTNFDAERDALNIETAIKTKGVDEVTIVNILTNRSNAQRQDIAFAYQRRTKKELASALKSALSGHLETVILGLLKTPAQYDASELKASMKGLGTDEDSLIEIICSRTNQELQEINRVYKEMYKTDLEKDIISDTSGDFRKLMVALAKGRRAEDGSVIDYELIDYFADRLYDSMKGKGTRDKVLIRIMVSRSEVDMLKIRSEFKRKYGKSLYYYIQQDTKGDYQKALLYLCGGDDYPYDVPDYA
B4: ΔR1: AnxA2 deletion of aa 37-108 (protein)
chain: MSTVHEILCKLSLEGDHSTPPSAYGSVKAYTNFDAEYDASELKASMKGLGTDEDSLIEIICSRTNQELQEINRVYKEMYKTDLEKDIISDTSGDFRKLMVALAKGRRAEDGSVIDYELIDQDARDLYDAGVKRKGTDVPKWISIMTERSVPHLQKVFDRYKSYSPYDMLESIRKEVKGDLENAFLNLVQCIQNKPLYFADRLYDSMKGKGTRDKVLIRIMVSRSEVDMLKIRSEFKRKYGKSLYYYIQQDTKGDYQKALLYLCGGDDYPYDVPDYA
B5: Δ37-48: AnxA2 deletion of aa 37-48 (protein)
chain: MSTVHEILCKLSLEGDHSTPPSAYGSVKAYTNFDAEKGVDEVTIVNILTNRSNAQRQDIAFAYQRRTKKELASALKSALSGHLETVILGLLKTPAQYDASELKASMKGLGTDEDSLIEIICSRTNQELQEINRVYKEMYKTDLEKDIISDTSGDFRKLMVALAKGRRAEDGSVIDYELIDQDARDLYDAGVKRKGTDVPKWISIMTERSVPHLQKVFDRYKSYSPYDMLESIRKEVKGDLENAFLNLVQCIQNKPLYFADRLYDSMKGKGTRDKVLIRIMVSRSEVDMLKIRSEFKRKYGKSLYYYIQQDTKGDYQKALLYLCGGDDYPYDVPDYA
B6: Δ49-61: AnxA2 deletion of aa 49-61 (protein)
chain: MSTVHEILCKLSLEGDHSTPPSAYGSVKAYTNFDAERDALNIETAIKTNRSNAQRQDIAFAYQRRTKKELASALKSALSGHLETVILGLLKTPAQYDASELKASMKGLGTDEDSLIEIICSRTNQELQEINRVYKEMYKTDLEKDIISDTSGDFRKLMVALAKGRRAEDGSVIDYELIDQDARDLYDAGVKRKGTDVPKWISIMTERSVPHLQKVFDRYKSYSPYDMLESIRKEVKGDLENAFLNLVQCIQNKPLYFADRLYDSMKGKGTRDKVLIRIMVSRSEVDMLKIRSEFKRKYGKSLYYYIQQDTKGDYQKALLYLCGGDDYPYDVPDYA
B7: Δ74-88: AnxA2 deletion of aa 74-88 (protein)
chain: MSTVHEILCKLSLEGDHSTPPSAYGSVKAYTNFDAERDALNIETAIKTKGVDEVTIVNILTNRSNAQRQDIAFSALSGHLETVILGLLKTPAQYDASELKASMKGLGTDEDSLIEIICSRTNQELQEINRVYKEMYKTDLEKDIISDTSGDFRKLMVALAKGRRAEDGSVIDYELIDQDARDLYDAGVKRKGTDVPKWISIMTERSVPHLQKVFDRYKSYSPYDMLESIRKEVKGDLENAFLNLVQCIQNKPLYFADRLYDSMKGKGTRDKVLIRIMVSRSEVDMLKIRSEFKRKYGKSLYYYIQQDTKGDYQKALLYLCGGDDYPYDVPDYA
B8: Δ89-101: AnxA2 deletion of aa 89-101 (protein)
chain: MSTVHEILCKLSLEGDHSTPPSAYGSVKAYTNFDAERDALNIETAIKTKGVDEVTIVNILTNRSNAQRQDIAFAYQRRTKKELASALKLLKTPAQYDASELKASMKGLGTDEDSLIEIICSRTNQELQEINRVYKEMYKTDLEKDIISDTSGDFRKLMVALAKGRRAEDGSVIDYELIDQDARDLYDAGVKRKGTDVPKWISIMTERSVPHLQKVFDRYKSYSPYDMLESIRKEVKGDLENAFLNLVQCIQNKPLYFADRLYDSMKGKGTRDKVLIRIMVSRSEVDMLKIRSEFKRKYGKSLYYYIQQDTKGDYQKALLYLCGGDDYPYDVPDYA
B9: Δ62-75: AnxA2 deletion of aa 62-75 (protein)
chain: MSTVHEILCKLSLEGDHSTPPSAYGSVKAYTNFDAERDALNIETAIKTKGVDEVTIVNILTQRRTKKELASALKSALSGHLETVILGLLKTPAQYDASELKASMKGLGTDEDSLIEIICSRTNQELQEINRVYKEMYKTDLEKDIISDTSGDFRKLMVALAKGRRAEDGSVIDYELIDQDARDLYDAGVKRKGTDVPKWISIMTERSVPHLQKVFDRYKSYSPYDMLESIRKEVKGDLENAFLNLVQCIQNKPLYFADRLYDSMKGKGTRDKVLIRIMVSRSEVDMLKIRSEFKRKYGKSLYYYIQQDTKGDYQKALLYLCGGDDYPYDVPDYA
B10: ΔR4: AnxA2 deletion of aa 269-339 (protein)
chain: MSTVHEILCKLSLEGDHSTPPSAYGSVKAYTNFDAERDALNIETAIKTKGVDEVTIVNILTNRSNAQRQDIAFAYQRRTKKELASALKSALSGHLETVILGLLKTPAQYDASELKASMKGLGTDEDSLIEIICSRTNQELQEINRVYKEMYKTDLEKDIISDTSGDFRKLMVALAKGRRAEDGSVIDYELIDQDARDLYDAGVKRKGTDVPKWISIMTERSVPHLQKVFDRYKSYSPYDMLESIRKEVKGDLENAFLNLVQCIQNKPLYPYDVPDYA
B11: Δ37-66: AnxA2 deletion of aa 37-66 (protein)
chain: MSTVHEILCKLSLEGDHSTPPSAYGSVKAYTNFDAEQRQDIAFAYQRRTKKELASALKSALSGHLETVILGLLKTPAQYDASELKASMKGLGTDEDSLIEIICSRTNQELQEINRVYKEMYKTDLEKDIISDTSGDFRKLMVALAKGRRAEDGSVIDYELIDQDARDLYDAGVKRKGTDVPKWISIMTERSVPHLQKVFDRYKSYSPYDMLESIRKEVKGDLENAFLNLVQCIQNKPLYFADRLYDSMKGKGTRDKVLIRIMVSRSEVDMLKIRSEFKRKYGKSLYYYIQQDTKGDYQKALLYLCGGDDYPYDVPDYA

Chain of PCSK9-V5 (Q8NBP7 153-692): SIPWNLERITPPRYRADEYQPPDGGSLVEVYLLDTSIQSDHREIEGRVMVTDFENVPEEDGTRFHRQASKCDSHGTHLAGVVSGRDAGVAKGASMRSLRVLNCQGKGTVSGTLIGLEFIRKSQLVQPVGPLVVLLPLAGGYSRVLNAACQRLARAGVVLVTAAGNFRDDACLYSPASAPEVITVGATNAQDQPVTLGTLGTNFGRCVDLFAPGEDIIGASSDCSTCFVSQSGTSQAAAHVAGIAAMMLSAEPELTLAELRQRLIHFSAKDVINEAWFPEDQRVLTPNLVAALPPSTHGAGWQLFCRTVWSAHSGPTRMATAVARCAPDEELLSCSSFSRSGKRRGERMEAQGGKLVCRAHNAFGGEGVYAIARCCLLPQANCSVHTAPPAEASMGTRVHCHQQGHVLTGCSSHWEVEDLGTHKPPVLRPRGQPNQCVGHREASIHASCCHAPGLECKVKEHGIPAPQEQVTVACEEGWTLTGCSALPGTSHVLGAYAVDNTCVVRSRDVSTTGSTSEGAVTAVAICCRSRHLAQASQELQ
Chain of PCSK9-V5 (Q8NBP7 31-152 partner limits assumed): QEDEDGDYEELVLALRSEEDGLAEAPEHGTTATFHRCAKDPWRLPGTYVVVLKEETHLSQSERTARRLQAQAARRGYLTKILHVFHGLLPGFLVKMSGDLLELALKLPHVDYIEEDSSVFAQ

The experiment concerns the target PCSK9-V5 (Homo sapiens, UniProt Q8NBP7). The experiment in a line: Far Western blot with PCSK9-V5 conditioned media. Also on record: made in house; host or cells: CHO-K1 cells (conditioned medium, not purified). The class given is binding. The conditions noted are these: lysates of cells overexpressing the construct. The method, then: Lysates (20 to 30 μg protein), media or purified AnxA2-(His)6 were heated in reducing or non-reducing Laemmli sample buffer, resolved by SDS-PAGE on 8% glycine gels and electro-transferred onto nitrocellulose membranes (GE Healthcare). Following 1 h incubation in 5% skim milk in Tris-Buffered Saline-0.1% Tween (TBST), membranes where incubated with conditioned media of CHO-K1 cells overexpressing either an empty vector (pIRES-V5), PC5A-V5, CHRD-V5, pIRES-D374Y, PCSK9-V5 or its V5-tagged mutants, or incubated with purified AnxA2-(His)6 for 3 h at room temperature. […] For competition experiments, 10 μg of His-tagged PCSK9 or CHRD were added to the PCSK9-V5 media before Far Western blotting. For PCSK9 binding requirements with the ˜33 kDa protein, 1M NaCl, 10 mg/ml heparin, 1M NaCl+10 mg/ml heparin, or 100 mM EDTA were added to the PCSK9-V5 conditioned media used for Far Western blotting.
Wild type human Annexin A2 (AnxA2) (ATCC #MGC-2257) and Annexin A1 (AnxA1) (ATCC #MGC-5095) were purchased from ATCC and subcloned into NheI/SacI digested pIRES2-EGFP vector. An HA epitope ([…]) was fused by PCR mutagenesis at the C-terminus of both AnxA1 and AnxA2. Two-steps PCRs were performed on AnxA2 cDNA to introduce point mutations (N62Q; S64A; K28S+D34N+E36S; R37S+E43H+K47M; 77RRTKK (SEQ ID NO: 26)>AATAK (SEQ ID NO: 27); ^77RRTKK (SEQ ID NO: 26)>AATAA (SEQ ID NO: 28); ^77RRTKKELASALK (SEQ ID NO: 29)>^77AATAAELASALA (SEQ ID NO: 30); 80KKELA (SEQ ID NO: 31)>GKPLD (SEQ ID NO: 32)), or amino acid (aa) deletions (Δ2-24, aa 2-24; ΔR1, aa 37-108; ΔR2, aa 109-192; ΔR3, aa 193-268; ΔR4, aa 269-339; Δ25-36, aa 25-36; Δ37-48, aa 37-48; Δ49-61, aa 49-61; Δ62-75, aa 62-75; Δ37-66, aa 37-66; Δ74-88, aa 74-88; Δ82-88, aa 82-88; Δ89-101, aa 89-101; Δ102-108, aa 102-108) into pIRES2-AnxA2-EGFP vector (see Table 3 above). In addition, using PCR, the AnxA2 segment aa 49-75 was swapped with the corresponding AnxA1 segment aa 58-84 [AnxA1 (aa 58-84)>AnxA2 (aa 49-75)]. Similar swaps were performed for the corresponding AnxA2 sequence with AnxA1 (AnxA1>AnxA2: aa 25-27; aa 28-30; aa 31-33; aa 34-36; aa 37-39; aa 40-42; aa 43-45; aa 46-48; aa 49-75; aa 49-61; aa 62-75). All final cDNA constructs were verified by DNA sequencing.
With Δ2-24: AnxA2 deletion of aa 2-24, the “PCSK9-V5 binding by Far Western blot” value was “does not affect binding to PCSK9”.
In the case of B1, the “PCSK9-V5 binding by Far Western blot” value is recorded as “abolished PCSK9 binding”.
With B2, the “PCSK9-V5 binding by Far Western blot” value was “had no major effect”.
With B3 the entry was “had no major effect”; with B4, “completely abrogated the interaction”.
As for B5, the “PCSK9-V5 binding by Far Western blot” value is listed as “abolished PCSK9 binding”.
As for B6, the “PCSK9-V5 binding by Far Western blot” value is “abolished PCSK9 binding”.
With B7, the “PCSK9-V5 binding by Far Western blot” value is recorded as “abolished PCSK9 binding”.
The same measure for B8: “abolished PCSK9 binding”; for B9: “abolished PCSK9 binding”.
Take B10: the “PCSK9-V5 binding by Far Western blot” value is listed as “had no major effect”.
The same measure for B11: “abolished PCSK9 binding”.
